Legend:
[1] = molecular target: human antigen non-specific glycosylation inhibiting factor (GIF), hybridoma-derived (human); test: ELISA, culture supernatant on wells coated with affinity-purified GIF from CL3
[2] = molecular target: recombinant human GIF secreted by COS-1 cells co-transfected with SRα-hcGIF and SRα-hfurin (human); test: fractionation of concentrated COS-1 supernatant on 388F1-Sepharose; GIF bioassay
[3] = molecular target: human antigen non-specific glycosylation inhibiting factor (GIF), hybridoma-derived (human); test: ELISA of the flow-through fraction from 110BH3-Sepharose
[4] = molecular target: PLA2-binding GIF from anti-CD3-treated AC5 cells (human); test: ELISA of the acid eluate fraction from 110BH3-Sepharose
[5] = molecular target: bovine serum albumin (BSA) (bovine) (UniProt P02769); test: ELISA, nonspecific binding of Ig in the same supernatant to BSA-coated wells

ELISA signal (optical density at 410 mµ) [1]: 0.892 OD
GIF activity recovered in the acid eluate fraction [2]: > 75%
ELISA signal (absorption at 490 nm) [3]: 0.36 absorbance
ELISA signal (absorption at 490 nm) [4]: 0.86 absorbance
ELISA control (optical density at 410 mµ) [5]: 0.1 OD
Substance: monoclonal anti-human GIF antibody 388F1 (ATCC HB 10472)
